Four substances from paper PMC8886820 can be followed below.

The target of assay [1] is Taxol-stabilized microtubules (UniProt P02550). Nature of the assay: TIRF microscopy of EGFP-tagged protein on surface-held microtubules.
For assay [2] the target is unchanged. Described as above. The source holds these as a separate data set.
The target of assay [3] is phospho-10xMEED (MBP-Spc105(10xMEED)-TST phosphorylated by activated Sli15(INBOX)-Ipl1) (D. melanogaster). Nature of the assay: pull-down.
The target in assay [4] is MBP-Spc105(10xMEED)-TST (D. melanogaster). Nature of the assay: pull-down.

Like-named read-outs stand apart in the source and are kept apart here.

Sequence of Taxol-stabilized microtubules (P02550 whole entry, chain 1 of 2): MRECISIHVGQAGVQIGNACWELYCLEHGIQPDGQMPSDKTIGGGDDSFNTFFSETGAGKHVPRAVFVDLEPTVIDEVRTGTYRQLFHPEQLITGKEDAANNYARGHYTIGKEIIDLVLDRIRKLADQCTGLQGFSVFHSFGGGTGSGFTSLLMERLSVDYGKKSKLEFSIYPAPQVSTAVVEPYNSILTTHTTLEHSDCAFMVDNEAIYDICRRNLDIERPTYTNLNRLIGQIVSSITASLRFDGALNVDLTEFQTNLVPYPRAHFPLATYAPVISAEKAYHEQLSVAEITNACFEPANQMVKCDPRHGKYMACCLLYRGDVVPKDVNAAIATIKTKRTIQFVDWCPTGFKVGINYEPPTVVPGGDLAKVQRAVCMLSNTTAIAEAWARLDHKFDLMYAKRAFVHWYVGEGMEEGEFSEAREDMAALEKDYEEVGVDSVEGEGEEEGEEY
Sequence of Taxol-stabilized microtubules (P02554 whole entry, chain 2 of 2, further chain): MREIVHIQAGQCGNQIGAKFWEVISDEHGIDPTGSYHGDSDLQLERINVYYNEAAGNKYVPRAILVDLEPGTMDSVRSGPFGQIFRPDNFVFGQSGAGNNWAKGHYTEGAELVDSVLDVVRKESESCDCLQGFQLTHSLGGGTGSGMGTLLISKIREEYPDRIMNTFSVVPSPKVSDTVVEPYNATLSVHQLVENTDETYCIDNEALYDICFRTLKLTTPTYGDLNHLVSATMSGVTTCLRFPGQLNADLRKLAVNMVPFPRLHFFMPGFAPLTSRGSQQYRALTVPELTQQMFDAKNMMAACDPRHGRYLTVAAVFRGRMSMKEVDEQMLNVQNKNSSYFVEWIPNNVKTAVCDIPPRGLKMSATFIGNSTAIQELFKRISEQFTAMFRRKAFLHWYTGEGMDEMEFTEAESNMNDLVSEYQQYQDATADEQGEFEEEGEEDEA

In turn, “Spc105-A(1-400)-EGFP (domain or fragment)” registered a percent of the MT binding of Spc105-B(1-400) in assay [1] of less than 50%.
For “Spc105-B(1-400)-EGFP (domain or fragment)”, the percent of the MT binding of Spc105-B(1-400) in 150 mM KCl in assay [2] came to 12.5%. In assay [1], this substance came in with a percent of the MT binding of Spc105-B(1-400) in 150 mM KCl of 14.6% and a percent reduction of MT binding against Spc105-B(1-400) without 1,6-HD of 40%.
For Bub3-EGFP (natural protein), the fold Bub3 bound against the unphosphorylated MBP-TST control in assay [3] is 30 fold. Also, in assay [4], the fold Bub3 bound against the MBP-TST control turned out to be 2 fold.
The substance “Spc105-B(1-400)-EGFP phosphorylated with Sli15(INBOX)-Ipl1 (domain or fragment)” came in with a percent of the MT binding of unphosphorylated Spc105-B(1-400) in 150 mM KCl in assay [1] of 22.1%.
